Measurements published in patent publication US20240343815A1 (CHIA TAI TIANQING PHARMACEUTICAL GROUP, published 2024).
Like-named read-outs stand apart in the source and are kept apart here.

Key:
[1] = target: T1, human IL4Rα on HEK293T-IL4Rα-STAT6-STAT6LUC-LB2 cells (human, UniProt P24394 26-825); assay: cell-based or functional assay
[2] = target: T2, recombinant human IL4Rα-his protein (human, UniProt P24394 26-232, biotinylated in the capture ELISA and the benchmark blocking ELISA); assay: SPR Biacore, mAb captured, IL4Rα-his analyte
T2 construct: also called biotinylated human IL4Rα-his protein
Method: Briefly, a goat anti-human IgG (GE Healthcare, Cat. No. BR100839, Human Antibody Capture Kit) was covalently attached to a CMS chip (carboxymethylated dextran-coated chip) via the primary amine group using a standard amine coupling kit supplied by Biacore (GE Healthcare, Pittsburgh, PA, USA). Unreacted portions on the biosensor surface were blocked with ethanolamine. Then, the anti-IL4Rα antibody in the present disclosure at 66.67 nM and an anti-IL4Rα antibody benchmark (dupilumab, or DUPIXENT® or BM) at 10 μg/mL were directed through the chip at a flow rate of 10 μL/min. A recombinant human IL4Rα-his protein (prepared in-house, amino acid sequence set forth in SEQ ID NO: 15), a cynomolgus monkey IL4Rα-his protein (Sino Biological Inc., Cat. No. 90897-008H), or a marmoset monkey IL4Rα-his protein (customized product from Sino Biological Inc., denoted as cal-IL4Rα-his, amino acid sequence set forth in SEQ ID NO: 16) serially diluted with an HBS EP buffer (supplied by Biacore) was directed through the chip at a flow rate of 30 μIJmin. The antigen-antibody binding kinetics was tracked for 2 min and the dissociation kinetics was tracked for 10 min. The association and dissociation curves were fitted according to a 1:1 Langmuir binding model using BIA evaluation software, and the KD, Kₐ, and Kd values were determined.
According to the protocol in the examples above, the binding affinity of the humanized antibodies to human IL4Rα was assessed by the BIAcore technique, and the Kₐ, Kd, and KD values were determined and summarized in Table 3.

[3] = target: T2, recombinant human IL4Rα-his protein; assay: SPR Biacore, mAb captured from supernatant, IL4Rα-his analyte
[4] = target: T1, human IL4Rα on …; assay: cell-based or functional assay; remark: listed apart in the source

Inhibition of IL4-induced STAT6 phosphorylation (IC50, nM) [1]: 0.27 nM
Inhibition of IL13-induced STAT6 phosphorylation (IC50, nM) [1]: 0.56 nM
Dissociation (%) [2]: -1.94%
End (RU) [2]: 65.8 RU
Kd [2]: < 0.0304 nM
Start (RU) [2]: 67.1 RU
koff [2]: < 1e-05 s⁻¹
Kd [3]: 0.111 nM
koff [3]: 4.04e-05 s⁻¹
Inhibition of IL4-induced STAT6 phosphorylation (IC50, nM) [4]: 0.26 nM
Inhibition of IL13-induced STAT6 phosphorylation (IC50, nM) [4]: 0.39 nM
B1: Chimeric C2C1A1A1 (antibody, human IgG4 S228P, kappa, V domains shown)
VH: EVQLVESGGGLVQPGGSLKLSCAASGFTFSTYGMSWVRQTPDKRLELVATINSNGGSTSYPDSVKGRFTISRDNAKNTLYLQMSSLKSEDTAMFYCARFFRFRNAMDYWGQGTSVTVSS
VL: DIQMTQSPASLSASVGETVTITCRTSENIYSYLAWYQQKQGKSPQFLVYNAKTLAEGVPSRFSGSGSGTQFSLNINSLQSEDFGSYYCQHYYGPPTWTFGGGTKLEIKR
notes: Mouse variable regions on human IgG4 / kappa constant regions; also called chimeric antibody; Supernatant containing chimeric C2C1A1A1
